From US20250154263A1 (FEINSTEIN INSTITUTES FOR MEDICAL RESEARCH, published 2025) come the findings set out here.

The test addresses T1, CLECL1 on the cell surface (CLECL1+ CLL PF cells) (human, UniProt Q8IZS7 1-167).
T1 construct: Native CLECL1 on patient CLL cells or the MEC1 CLL line; also called DCAL-1
T1 sequence: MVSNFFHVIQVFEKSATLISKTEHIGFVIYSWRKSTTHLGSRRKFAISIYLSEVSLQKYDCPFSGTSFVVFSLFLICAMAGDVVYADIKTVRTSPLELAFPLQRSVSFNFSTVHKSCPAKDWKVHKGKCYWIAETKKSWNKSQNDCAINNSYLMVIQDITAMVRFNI
Kind of test: flow cytometry (FIG. 8E; cells not named in the legend).

B1: mAb 243.6 (antibody, mouse IgG1, V domains shown)
VH: EVQLQQSGTVLVRSGASVKLSCTASGFNIKEYYIHWVKQRPEQGLEWIAWIDLENGESEYAPKFQGKATLTADTSSNTAYLQLSGLTSEDTAVYYCNAFHGNYAHNYAIDYWGQGTSVTVSQ
VL: DIVMSQSPSSLAVSAGEKVTMTCKSSQSLLNSRTRKNYLAWYQQKPGQSPKLLIYWASTRKSGVPDRFTGSGSGTDFTLTISSVQAEDLAVYYCKQSYNLRTFGGGTKLEIK
notes: also called 243.6.1
With B1, the binding result is reported as “binds”.

B2: mAb 17.2 (antibody, mouse IgG1, V domains shown)
VH: EVQLQQSGAELVRSGASVKLSCTTSGFNIKDFYIHWVRQRPEQGLEWIGWIDPKNDDTEYAPRFQGKATVTADTSSNTAYLHLSGLTSEDTAVYYCNGRYPTMDFWGQGTSVT
VL: EIVLTQSPITMTTSPGEKITITCSASSSISSHYLHWYQQKPGFSPKLLIYRASNLASGVPTRFSGSGSGTSYSLTIDTMEAEDVATYFCQQGSSLPLTFGAGTKLELK
notes: also called 17.2.3; hybridoma #17
In the case of B2, the binding result is on record as “binds”.
